Measurements as given in patent US20150050306A1 (University of Washington, published 2015).

B1: FFL_007 (designed binder)
chain: GSLSDIRKDAERRFDKLVEAVKNKLDKMKAALRKEGQQEERMKDLMKFMRKEVEQLRKAMRNFLSEALSKINDMPITNDDKKLISNDLKKYDAIAEKKLEAMKADVERMATQGSWLEHHHHHH
B2: FFL_002 (designed binder)
chain: GSLSDVRKDVEKRIDKALEAFKNKMDKEKAAFRKDPPSEERRKDKKKEFREEREQVRKAIRNVLSEALSKINDLPITNDKKKLVSNDVIKKVAEMKKKVELEVADVEKKVTQGSW
notes: Purified on Ni++ resin; no tag is stated for this construct
B3: FFL_005 (designed binder)
chain: GSMSDIRKDLEERFDKLVEALKNKVDKMKAAFRKDQFHEERMKDWFKDLRKEVEQMRRAVRNYASEALSKINDLPITNDDKKLASNDVLKLVAEVWKKLEAILADVEAWFTQLEHHHHHH
B4: FFL_004 (designed binder)
chain: GSMSDARKDLEERLDKLLEAAKNKMDKFKAAMRKRGQREERKKDWAKIVRDEFEQFRKAVRNFLSEALSKINDYPITNDDKKLTSNDTKKFAAEVEKKLEAFKADVEEAATQ
notes: as for B2
B5: FFL_006 (designed binder)
chain: GSFSDIRKDAEDRADKAFEAAKNKFDKIKAAIRKDWPSEERAKDLMKKARYEMEQARRAIRNIESEALSKINDLPITNDQKKLASNDIIKEMARLFKKLEALMADIEILVTQ
notes: as for B2
B6: FFL_001 (designed binder)
chain: GSRSDMRKDAERRFDKFVEAAKNKFDKFKAALRKGDIKEERRKDMKKLARKEAEQARRAVRNRLSELLSKINDMPITNDQKKLMSNDVLKFAAEAEKKIEALAADAEDKFTQGSW
notes: monomeric

What was measured:
Mota Fab [1] = biological target: T1, Mota Fab; assay: SPR (Biacore 2000); koff/kon; scaffold coupled to chip, Motavizumab as analyte
T1 construct: also called Motavizumab Fab; Fab portion of Motavizumab

Mota Fab [2] = biological target: T1, Mota Fab; assay: SPR (Biacore 2000); scaffold coupled to chip, Motavizumab as analyte
Description: All experiments were carried out on a Biacore 2000 (GE Healthcare) at 25° C. with HBSEP (0.01 M HEPES pH 7.4, 0.15 M NaCl, 3 mM EDTA and 0.005% (v/v) Surfactant P20) (GE Healthcare) as running buffer. […] Samples of different protein concentrations were injected in duplicates over this surface at a flow rate of 50-100 μl/min. If necessary, surface regeneration was performed with two 60 seconds injections of 3 M MgCl₂ at a flow rate of 10 μl/min. One flow cell contained anti-human IgG only and its interaction with the analyte was used as reference. Alternatively, another format was used where the epitope where amine-coupled to the sensor chip and Mota Fab was injected with identical flow rates as mentioned above.
To test whether the functional site (mota epitope) was recreated with fidelity, binding affinities were assessed by Surface Plasmon Resonance (SPR) experiments (FIG. 6). […] (See Table 3) The scaffolds were coupled to the biacore chip and Motavizumab was used as analyte.

| Binder | Kd (Mota Fab [1]) | koff (Mota Fab [2]) | kon (Mota Fab [2]) |
| --- | --- | --- | --- |
| B1 | 0.0941 nM | 0.000136 s⁻¹ | 1.45e+06 M⁻¹ s⁻¹ |
| B2 | 0.47 nM | 0.000734 s⁻¹ | 1.56e+06 M⁻¹ s⁻¹ |
| B3 | 0.0703 nM | 0.000209 s⁻¹ | 2.97e+06 M⁻¹ s⁻¹ |
| B4 | 0.795 nM | 0.000832 s⁻¹ | 1.05e+06 M⁻¹ s⁻¹ |
| B5 | 0.652 nM | – | – |
| B6 | 0.03 nM | 0.000119 s⁻¹ | 3.99e+06 M⁻¹ s⁻¹ |
